B1: TCN-556 (5089_K12) (antibody, V domains shown)
VH: QVQLVQSGAEVKKPGASVKVSCKASGYTFIGYDMHWVRQAPGQGLEWMGWINAKRGGTNYAQKFQGRVTMTRDTSISTAYMELNSLRSDDTAVYYCARGVGSRTTIFGVLNPEFDYWGQGTLVTVSS
VL: QSALTQPPSASGSPGQSVTISCTGSSSDVGGYDYVSWYQQHPGKAPKLLIYEVTKRPSGVPDRFSGSKSGNTASLTVSGLQAEDEADYYCSSYAGNYNHVFGPGTKVTVL
B2: TCN-560 (5084_P10) (antibody, V domains shown)
VH: EVQLVESGGGLVQPGGSLRLSCAASGFIFRNYWMSWVRQAPGKGLEWVANIKQDGREKYYVDSLRGRVNISRDNAENSLYLHMNSLRVEDTAVYFCARARMVVVTGDGFDVWGHGTMVTVSS
VL: DIQMTQSPSSLSASVGDRVTITCRASQNIKRYFNWYQQKPGKAPKLLIYAASNLENGVPSRFSGSGSGTDFTLTISSLQPEDFATYYCQQSFSKSWTFGQGTNVDIK

Columns and labels:
[1] = target: recombinant soluble homotrimeric HA, A/Japan/305/57 H2N2 (Influenza A virus A/Japan/305/1957(H2N2)); assay: microarray, transfection SN IgG, trimeric HA
[2] = target: recombinant soluble homotrimeric HA, A/Hong Kong/156/97 H5N1 (Influenza A virus A/Hong Kong/156/97 …); assay: microarray, transfection SN IgG, trimeric HA
[3] = target: recombinant soluble homotrimeric HA, A/Egypt/3300-NAMRU3/08 H5N1 (Influenza A virus …); assay: microarray, transfection SN IgG, trimeric HA
[4] = target: recombinant soluble homotrimeric HA, A/Anhui/1/05 H5N1 (Influenza A virus A/Anhui/1/2005(H5N1)); assay: microarray, transfection SN IgG, trimeric HA
[5] = target: recombinant soluble homotrimeric HA, A/duck/Yangzhou/02/05 H8N4 (Influenza A virus …); assay: microarray, transfection SN IgG, trimeric HA
[6] = target: recombinant soluble homotrimeric HA, A/California/4/09 H1N1 (Influenza A virus …); assay: microarray, transfection SN IgG, trimeric HA
[7] = target: recombinant soluble homotrimeric HA, A/Indonesia/5/05 H5N1 (Influenza A virus …); assay: microarray, transfection SN IgG, trimeric HA
[8] = target: recombinant soluble homotrimeric HA, A/Solomon Islands/3/06 H1N1 (Influenza A virus A/Solomon …); assay: microarray, transfection SN IgG, trimeric HA
[9] = target: recombinant soluble homotrimeric HA, A/South Carolina/1/18 H1N1 (Influenza A virus A/South Carolina/1/18 …); assay: microarray, transfection SN IgG, trimeric HA
[10] = target: recombinant soluble homotrimeric HA, A/Vietnam/1203/04 H5N1 (Influenza A virus …); assay: microarray, transfection SN IgG, trimeric HA
[11] = target: recombinant soluble homotrimeric HA, A/Wisconsin/67/05 H3N2 (Influenza A virus …); assay: microarray, transfection SN IgG, trimeric HA
[12] = target: recombinant soluble homotrimeric HA, A/northern shoveler/California/HKWF115/07 H6N4 (Influenza A virus A/northern …); assay: microarray, transfection SN IgG, trimeric HA
[13] = target: recombinant soluble homotrimeric HA, A/chicken/Vietnam/NCVD-016/08 H5N1 (Influenza A virus …); assay: microarray, transfection SN IgG, trimeric HA
[14] = target: recombinant soluble homotrimeric HA, A/Netherlands/219/03 H7N7 (Influenza A virus …); assay: microarray, transfection SN IgG, trimeric HA
[15] = target: recombinant soluble homotrimeric HA, A/swine/Ontario/01911-2/99 H4N6 (Influenza A virus …); assay: microarray, transfection SN IgG, trimeric HA
[16] = target: hemagglutinin on live influenza A virus, A/California/4/09 H1N1 (Influenza A virus …); assay: cell-based or functional assay
[17] = target: hemagglutinin on whole influenza A virions, A/Solomon Islands/3/06 H1N1 (Influenza A virus A/Solomon …); assay: cell-based or functional assay
[18] = target: hemagglutinin on whole influenza A virions, A/Wisconsin/67/05 H3N2 (Influenza A virus …); assay: cell-based or functional assay

| Binder | Trimeric HA Binding: RLU [1] | Trimeric HA Binding: RLU [2] | Trimeric HA Binding: RLU [3] | Trimeric HA Binding: RLU [4] | Trimeric HA Binding: RLU [5] | Trimeric HA Binding: RLU [6] | Trimeric HA Binding: RLU [7] | Trimeric HA Binding: RLU [8] | Trimeric HA Binding: RLU [9] | Trimeric HA Binding: RLU [10] | Trimeric HA Binding: RLU [11] | Trimeric HA Binding: RLU [12] | Trimeric HA Binding: RLU [13] | Trimeric HA Binding: RLU [14] | Trimeric HA Binding: RLU [15] | % Neutralization [16] | % Neutralization [17] | % Neutralization [18] |
| --- | --- | --- | --- | --- | --- | --- | --- | --- | --- | --- | --- | --- | --- | --- | --- | --- | --- | --- |
| B1 | 22800 RLU | 24600 RLU | 16600 RLU | 13800 RLU | 22400 RLU | 20900 RLU | 15200 RLU | 23400 RLU | 32700 RLU | 17400 RLU | 44700 RLU | 34800 RLU | 22700 RLU | 43600 RLU | 19300 RLU | 0% | 0% | 15% |
| B2 | 25900 RLU | 29300 RLU | 18700 RLU | 18600 RLU | 27900 RLU | 31100 RLU | 17000 RLU | 22400 RLU | 30500 RLU | 19500 RLU | 55400 RLU | 35900 RLU | 18200 RLU | 32100 RLU | 16800 RLU | 0% | 0% | 4% |
